# Test results: publication PMC2606963
# What was measured:
# [1] = molecular target: dynamic microtubules grown in buffer from purified (tyrosinated) tubulin (pig) (UniProt P02550); experiment: single-molecule TIRF microscopy on dynamic microtubules
# [2] = molecular target: dynamic microtubules grown in buffer from detyrosinated tubulin (tubulinΔY) (pig) (UniProt P02550); experiment: TIRF microscopy on dynamic microtubules
Substance,mean single molecule dwell time at growing microtubule ends [1] [s],percent reduction of end binding against microtubules of tyrosinated tubulin [2] [%],mean dwell time at growing microtubule ends [1] [s]
EB1-GFP (full-length X. laevis EB1 fused to GFP) (natural protein),0.05,–,–
H2-GFP (GFP-tagged H2 fragment of CLIP-170) (domain or fragment),–,87,0.25
